Measurements taken from the supplement of paper PMC9170038.

System: MS2 coat protein
Experiment: apparent KD of MS2 coat protein; designed switch direction (-1 OFF switch, 1 ON switch): 1; higher = weaker reporter binding
Procedure, shortened: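 For each design, the apparent KD is the median over clusters of curves fitted to normalised cluster fluorescence. Clusters held RNA switches with common flanks, transcribed on Illumina chips by stalled E. coli RNA polymerase. These were titrated with SNAP-549-labelled MS2 coat protein, doubling from 0.7 or 1.5 nM to 3 µM, without input, with 200 uM small-molecule ligand, or with an oligonucleotide input.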

[1] = input ligand: microRNA oligo, concentration not stated
[2] = Eterna round: R95, input ligand: microRNA oligo, concentration not stated
[3] = Eterna round: R95, input ligand: FMN 200 uM
[4] = Eterna round: R95, input ligand: none

Row | Sequence | apparent KD of MS2 coat protein (input ligand: FMN 200 uM) [nM] | apparent KD of MS2 coat protein [1] [nM] | apparent KD of MS2 coat protein (input ligand: none) [nM] | apparent KD of MS2 coat protein [2] [nM] | apparent KD of MS2 coat protein [3] [nM] | apparent KD of MS2 coat protein [4] [nM]
1 | GGAAUAUGAUGUUACAUGAGGAUCACCCAUGUAGUAAUAACUAAGGAUAUUUGAAAGGGAGGAGAAGAGAAGGUAGGAUCAUAA [AK SSNG3-V2-11] (Eterna round: R96, puzzle: Same State NG 3) | 61 | 41.3 | 63.8 |  |  | 
2 | ACGCAGCUGGGUAAGGAUAUCGGUGGUAAAACAUGAGGAUCACCCAUGUCCGAAGCUCGGACCUCCGAGAAGGUGCCCGGCUGCG [Soinraesar Omei Mod 7] (puzzle: Same State 2) |  |  |  | 6.58 |  | 
3 | UAGAAACAUGAGGAUCACCCAUGUGGGUUAAACACAGGAUAUCACGCCAAAAGAAAAGCGUGAGAAGGGUGACCGA [Xeusisus] (Eterna round: R96, puzzle: Same State 1) | 254 | 696 | 107 |  |  | 
4 | ACAUGAGACUCAGGAUAUAUUGUACCUACAUGUGACAUGAGGAUCACCCAUGUGGUAAGUAUGACAUAGAAGGGAGAGAUAUGU [Equivalance 86 - Jieux - Same State NG 2] (Eterna round: R96, puzzle: Same State NG 2) | 37.3 | 40.5 | 59.9 |  |  | 
5 | AUUUUUAAUGCAGGAUAUGAUUAACAUGAGGAUCACCCAUGUGGUGUUGUGAGUAAGGAGAGUGAUCAGAAGGGCAUCUUUUUU [JMF's solution 81] (Eterna round: R96, puzzle: Same State NG 2) | 567 | 529 | 490 |  |  | 
6 | UACCGCGCAGAUGCGCAACAUGAGGAUCACCCAUGUGGCACACAGGAUAUCCUGAACAGCUAUUAGGAGAAGGGUGAAGGCCUC [Sotetelequ] (Eterna round: R96, puzzle: Same State NG 3) | 128 | 75.3 | 78.3 |  |  | 
7 | GGUGGGUUACUACCCACACAUGAGGAUCACCCAUGUAUUGGGAAGGAUAUGGUGCCUGUGUGGUACCAGAAGGUCGUGAAGGUG [SS-NG3-LRO19] (Eterna round: R96, puzzle: Same State NG 3) | 580 | 312 | 3470 |  |  | 
8 | GCUCGGAUGAUGGCCCACAUGAGGAUCACCCAUGUGCGUGGGCAGGAUAUCUAGAUUAAGGAUGUAGAGAAGGGUCUACCGAGC [SameState NG3 #32] (Eterna round: R96, puzzle: Same State NG 3) | 194 | 67.9 | 128 |  |  | 
9 | UGUUGUAUUACAGGAUAUCUAUUAUUUUGAUUUAGAGAAGGGUAUUCACAUGAGGAUCACCCAUGUAUAUACGAGGAAGUUGUG [JMF's solution 22] (Eterna round: R96, puzzle: Same State NG 1) |  | 34.4 |  |  |  | 
10 | UUCCCAUCGGGAGGAUAUGGUGCCUUAUUGGUGCUAGAAGGUCCAACAUGAGGAUCACCCAUGUGGGAGUGGUCUAAUGACCUC [SS NG10LRO06] (Eterna round: R96, puzzle: Same State NG 1) | 338 | 204 | 355 |  |  | 
11 | CGAUGAUACUUAGGAAAGAGAGUAGAGGAACAUGAGGAUCACCCAUGUAUGAGCUUUUUGCUCGUCAUGAACAGGAA [JR_SHM208a_Sub008] (puzzle: Sensor for hsa-mir-208a) |  |  |  | 62.4 | 88.6 | 168
12 | UCAAGCGUUUGGCUCGUCUUAUGUUUUGUACAUGAGGAUCACCCAUGUUUUGUACGAUCCAGUUAGAUGGUAUUUUG [JR_SHM208A_Sub038] (puzzle: Sensor for hsa-mir-208a) |  |  |  | 121 | 39.8 | 54.6
13 | AGCUAUCGAAAACGAUAGCAAAAGCGUGUACAUGAGGAUCACCCAUGUCAUGUACAAGCUUUUUGCUCGUCUUAAAA [Zipper 23 - 6] (puzzle: Sensor for hsa-mir-208a) |  |  |  | 14.4 | 34 | 41.8
14 | GGAGCCGGUACUGAGGAUAUUCAUAUUAAAACAUGAGGAUCACCCAUGUAGGCCAGAAGGCCUUGGGAGAAGGCAGAUCGGCUCC [Biceusra] (Eterna round: R96, puzzle: Same State 2) | 19 | 132 | 233 |  |  | 
15 | AUAAAUAACACAGGAUAUCCGCACGGGUAGUGCGGAGAAGGGUGAACGUCGGCUCUCGCCAACAUGAGGAUCACCCAUGUAAAG [Letiusle] (Eterna round: R96, puzzle: Same State NG 1) | 512 | 27.7 | 41.1 |  |  | 
16 | ACAUGAGAGAUAGGAUAUUGUGUACCUACAUGUGACAUGAGGAUCACCCAUGUGGUAAGUAUGAGCAAGAAGGAUCAGAUAUGU [Equivalance 51 - Jieux - Same State NG 2] (Eterna round: R96, puzzle: Same State NG 2) | 23.2 | 35.9 | 69.5 |  |  | 
17 | UUAAUGAAGUAAGGAUAUACAUGAGGAUUUCUCGUAGAAGGUACUAUACAUGAGGAUCACCCAUGUGCCGGUCCGUAGACUGGA [JL SSNG1 1.05] (Eterna round: R96, puzzle: Same State NG 1) | 342 | 297 | 607 |  |  | 
18 | GGCAUGCGGCGUACCGUAUGCUGGUAUGUACAUGAGGAUCACCCAUGUCAUGUACAGGCUUUUUGCUCGUCUUAUUG [JL-shm-2.40 JL mod] (puzzle: Sensor for hsa-mir-208a) |  |  |  | 28.7 | 128 | 157
19 | UUGAAGAAUUAAGGAUAUUGAAUACAUAUGUUUAACAUGAGGAUCACCCAUGUGGGUUGCGGUGUCGAGAAGGUAAAUUACUAG [JL SSNG2 1.50] (Eterna round: R96, puzzle: Same State NG 2) | 256 | 177 | 207 |  |  | 
20 | GUGGUCAGACAUGAGGAUCACCCAUGUGGAAUAAAUAAGGAGAAGGAUAUUAAAUAUAGGAUAUAUAAGAAGGUCUGGUUGGUG (Eterna round: R96, puzzle: Same State NG 3) |  | 65.2 |  |  |  | 
21 | UUUAUUAAUAUAGGAUAUGUAAAACAUGAGGAUCACCCAUGUGAUAUCGUGAGUAAGGAGAGAGAACAGAAGGAUAAUUUUUUU [JMF's solution 2] (Eterna round: R96, puzzle: Same State NG 2) | 39.7 | 35.1 | 32.5 |  |  | 
